Results published in US20170152290A1.

Target: sLRP1-CIV (cluster IV of LRP1 fused to the constant region of a human IgG1) (human)
Experiment: SPR (Biacore X), sLRP1-CIV immobilised on CM5 chip, peptide at 20 µM; RU observed at 160 s

## CSNIVIGIGDKALKINACKKK (modifications not checked) [peptide HDIII3CLW-]
  RU (at 160 s): 192 RU

## SSNIVIGIGDKALKINWSKKK (modifications not checked) [peptide HDIII3CLC-]
  RU (at 160 s): 38.2 RU
